Results: publication doi:10.1101/806364

How the values were obtained:
Assay in all cases: selective 80S ribosome footprinting
[1] = target: eIF4G1 (human (endogenous in HeLa)) (UniProt Q04637)
[2] = target: eIF4E (human (endogenous in HeLa)) (UniProt P06730)
[3] = target: eIF3B (human (endogenous in HeLa)) (UniProt P55884)
Sequence of UniProt P55884 (P55884 whole entry): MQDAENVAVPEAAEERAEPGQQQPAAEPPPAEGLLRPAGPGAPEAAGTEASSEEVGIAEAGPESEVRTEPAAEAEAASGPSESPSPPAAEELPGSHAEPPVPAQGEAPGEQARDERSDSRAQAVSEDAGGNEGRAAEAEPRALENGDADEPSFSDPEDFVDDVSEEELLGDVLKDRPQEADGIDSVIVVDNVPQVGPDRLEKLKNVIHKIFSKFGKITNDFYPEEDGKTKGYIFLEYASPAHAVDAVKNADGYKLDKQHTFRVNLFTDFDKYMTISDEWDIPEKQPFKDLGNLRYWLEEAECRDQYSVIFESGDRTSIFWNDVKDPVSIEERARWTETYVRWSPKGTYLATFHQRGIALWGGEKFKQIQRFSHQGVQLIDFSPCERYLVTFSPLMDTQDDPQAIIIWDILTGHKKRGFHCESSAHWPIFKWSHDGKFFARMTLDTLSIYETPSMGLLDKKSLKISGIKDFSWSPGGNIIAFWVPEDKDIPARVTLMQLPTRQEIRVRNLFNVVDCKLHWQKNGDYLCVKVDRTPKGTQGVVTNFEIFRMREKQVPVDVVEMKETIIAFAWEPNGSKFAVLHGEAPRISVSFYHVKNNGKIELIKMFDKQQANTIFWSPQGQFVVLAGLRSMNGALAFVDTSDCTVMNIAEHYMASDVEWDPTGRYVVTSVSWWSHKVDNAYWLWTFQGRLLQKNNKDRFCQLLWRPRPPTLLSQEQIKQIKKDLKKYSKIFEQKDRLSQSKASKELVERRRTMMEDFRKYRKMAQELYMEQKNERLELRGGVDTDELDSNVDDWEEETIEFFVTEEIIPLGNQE

Sequence of UniProt P06730 (P06730 whole entry): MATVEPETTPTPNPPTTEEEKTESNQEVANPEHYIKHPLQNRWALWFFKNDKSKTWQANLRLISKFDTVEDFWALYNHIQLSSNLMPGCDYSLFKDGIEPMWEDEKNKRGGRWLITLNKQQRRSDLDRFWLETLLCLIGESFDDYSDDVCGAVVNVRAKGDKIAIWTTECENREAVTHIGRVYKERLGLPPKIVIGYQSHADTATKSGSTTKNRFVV
Sequence of UniProt Q04637 (Q04637 whole entry): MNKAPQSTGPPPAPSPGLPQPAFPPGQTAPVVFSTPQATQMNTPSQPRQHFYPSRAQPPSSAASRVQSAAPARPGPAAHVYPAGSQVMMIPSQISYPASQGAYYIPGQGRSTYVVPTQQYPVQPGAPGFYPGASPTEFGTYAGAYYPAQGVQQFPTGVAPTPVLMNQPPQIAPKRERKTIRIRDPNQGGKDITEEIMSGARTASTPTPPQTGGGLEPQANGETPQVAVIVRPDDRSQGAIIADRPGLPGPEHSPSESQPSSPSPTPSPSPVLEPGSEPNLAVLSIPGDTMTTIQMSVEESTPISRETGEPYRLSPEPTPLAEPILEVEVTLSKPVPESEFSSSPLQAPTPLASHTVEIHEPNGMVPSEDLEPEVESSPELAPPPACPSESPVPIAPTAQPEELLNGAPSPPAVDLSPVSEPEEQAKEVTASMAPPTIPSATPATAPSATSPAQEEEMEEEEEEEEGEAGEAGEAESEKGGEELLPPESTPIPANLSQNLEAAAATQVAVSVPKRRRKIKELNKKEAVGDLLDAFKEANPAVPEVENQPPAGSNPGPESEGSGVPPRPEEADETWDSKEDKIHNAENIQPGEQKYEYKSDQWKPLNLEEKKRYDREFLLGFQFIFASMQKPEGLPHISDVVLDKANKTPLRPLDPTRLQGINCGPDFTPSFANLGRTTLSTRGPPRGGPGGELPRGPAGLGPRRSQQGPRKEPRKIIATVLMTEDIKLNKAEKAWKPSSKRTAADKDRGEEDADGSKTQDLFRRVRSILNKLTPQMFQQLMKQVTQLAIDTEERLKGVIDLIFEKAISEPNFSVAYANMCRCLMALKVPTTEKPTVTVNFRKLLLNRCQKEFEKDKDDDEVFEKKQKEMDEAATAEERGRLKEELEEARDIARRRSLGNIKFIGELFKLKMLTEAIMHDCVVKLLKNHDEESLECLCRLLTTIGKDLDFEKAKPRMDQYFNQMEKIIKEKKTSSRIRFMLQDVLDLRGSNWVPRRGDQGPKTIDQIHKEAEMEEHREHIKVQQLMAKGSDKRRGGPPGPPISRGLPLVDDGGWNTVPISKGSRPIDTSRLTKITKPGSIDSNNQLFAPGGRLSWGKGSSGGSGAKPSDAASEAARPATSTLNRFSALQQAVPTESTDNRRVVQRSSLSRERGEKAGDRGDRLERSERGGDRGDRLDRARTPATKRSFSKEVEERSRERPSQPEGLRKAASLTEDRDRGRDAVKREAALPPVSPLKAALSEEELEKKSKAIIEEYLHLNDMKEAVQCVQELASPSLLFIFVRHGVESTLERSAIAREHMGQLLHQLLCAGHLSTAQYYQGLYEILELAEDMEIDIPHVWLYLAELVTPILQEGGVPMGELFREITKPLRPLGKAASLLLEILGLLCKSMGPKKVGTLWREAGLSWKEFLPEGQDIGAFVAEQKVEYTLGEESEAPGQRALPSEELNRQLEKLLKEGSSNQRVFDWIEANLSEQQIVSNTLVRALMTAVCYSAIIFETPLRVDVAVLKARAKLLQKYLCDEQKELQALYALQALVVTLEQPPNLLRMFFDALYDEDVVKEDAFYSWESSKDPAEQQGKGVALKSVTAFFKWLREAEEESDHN

decay half-length of the factor on elongating 80S ribosomes [1]: 36 nucleotides
decay half-length of the factor on elongating 80S ribosomes [2]: 36 nucleotides
decay half-length of the factor on elongating 80S ribosomes [3]: 36 nucleotides
Substance: 80S ribosome (complex)
